Laboratory results from paper PMC8660890.

Target: recombinant β subunit of human MUC4 mucin (rMUC4β) (human)
Assay: native gel or EMSA; Blue Native PAGE of purified rMUC4β following thermal denaturation, non-reducing conditions; western blot with anti-His tag mAb

Work on “recombinant β subunit of human MUC4 mucin (rMUC4β) (domain or fragment)” yielded a stoichiometry N of 2.
